Kd data for 1 substance are collected here from publication PMC11323494, “A network of acetyl phosphate-dependent modification modulates c-di-AMP homeostasis in Actinobacteria” (mBio, 2024).

In the data set the test system is DasR K78Q (Saccharopolyspora erythraea NRRL2338). The data set is described as follows: BLI. The note with it: BLI: 10 mM HEPES pH 8.0, 2 mM MgCl2, 0.1 mM EDTA, 200 mM KCl (running buffer + 10 µg/mL BSA, 0.02% Tween-20), SA sensor, temperature not stated; EMSA: 5 nM …. In general terms: In EMSA bound probe runs differently from free probe, usually more slowly.

pKd: −log10 of the molar value.

Broadly, the pKd is −log10 of the Kd, conventionally taken in molar units. For the substance disA promoter probe, the negative-log Kd (pKd) is 4.70.
